Legend:
[1] = target: C3a (Homo sapiens (Human)) (UniProt P01024); assay: cell-based or functional assay
[2] = target: C5a (Homo sapiens (Human)) (UniProt P01031); assay: cell-based or functional assay
Chain of C5a (Homo sapiens (Human)) (P01031 678-751 limits assumed): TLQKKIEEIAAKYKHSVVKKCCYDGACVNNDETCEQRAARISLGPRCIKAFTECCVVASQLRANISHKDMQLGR

Chain of C3a (Homo sapiens (Human)) (P01024 672-748 limits assumed): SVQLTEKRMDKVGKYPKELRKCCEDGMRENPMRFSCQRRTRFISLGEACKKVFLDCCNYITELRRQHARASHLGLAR

TAFI activation peptide-CPN1-HSA (enzyme)
% Arg released (Arg LC-MS/MS, supernatant) [1]: 72%
% Arg released (Arg LC-MS/MS, supernatant) [2]: 14%
